Consider seven molecules from patent publication US20250002588A1 (DIAGONAL THERAPEUTICS, published 2025).

For assay [1], the target named is ALK-1/BMPR-2 receptor pair of the PathHunter U2Os dimerization cells (DiscoverX 93-0962C3) (UniProt P37023 22-503; Q13873 27-1038). The assay can be described thus: cell-based or functional assay.
In assay [2] the target is human ALK1 protein (Sino Biological, #10066-H08H) (human, UniProt P37023 22-118). The assay can be described thus: ELISA, coated human ALK1. The procedure, abridged: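 Plates coated overnight at 4 °C with 2 μg/ml human BMPRII or human ALK1 protein. DGL antibodies, diluted in PBS/0.1% BSA, bound 1 h at room temperature. Detection used anti-human IgG Fc–HRP (2 μg/ml, 1 h) and TMB, with absorbance read at 450 nm after stop solution.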
(In general: ELISA stands for enzyme-linked immunosorbent assay.)

The target in assay [3] is T1, human BMPRII protein (Sino Biological, #10551-H08H) (human, UniProt Q13873 27-150).
T1 sequence (looked up): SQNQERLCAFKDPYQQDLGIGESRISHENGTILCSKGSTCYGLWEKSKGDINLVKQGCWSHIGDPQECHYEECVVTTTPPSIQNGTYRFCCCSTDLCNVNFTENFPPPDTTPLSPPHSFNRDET
The assay can be described thus: ELISA, coated human BMPRII. As for the experimental part:
These binders were then tested using an ELISA assay. High binding plates (Corning, 9018) were coated with either 2 μg/ml of human BMPRII protein (Sino Biological, #10551-H08H) or 2 μg/ml of human ALK1 protein (Sino Biological, #10066-H08H) overnight at 4C. The plates were then washed three times with wash buffer (R&D Systems, WA126). […] The plates were then washed three times with wash buffer and DGL antibodies or controls, which were diluted with PBS and 0.1% BSA. The antibodies were incubated for one hour at room temperature and then the plates were washed three times with wash buffer. The plates were then incubated with mouse anti-human IgG Fc secondary—HRP (diluted with PBS/0.1% BSA); 100 ul per well at 2 μg/ml and incubated at room temperature for one hour. The plate was washed three times in wash buffer and then 100 ul TMB (R&D Systems, DY9998B, substrate reagent pack). After the wells turn blue, 50 ul of stop solution (R&D Systems, DY994) was added to each well and the absorbance of the plate was read at 450 nm. results can be found in Table 8.

Sequence of ALK-1/BMPR-2 receptor pair of the PathHunter U2Os dimerization cells (DiscoverX 93-0962C3) (P37023 22-503, one chain of several): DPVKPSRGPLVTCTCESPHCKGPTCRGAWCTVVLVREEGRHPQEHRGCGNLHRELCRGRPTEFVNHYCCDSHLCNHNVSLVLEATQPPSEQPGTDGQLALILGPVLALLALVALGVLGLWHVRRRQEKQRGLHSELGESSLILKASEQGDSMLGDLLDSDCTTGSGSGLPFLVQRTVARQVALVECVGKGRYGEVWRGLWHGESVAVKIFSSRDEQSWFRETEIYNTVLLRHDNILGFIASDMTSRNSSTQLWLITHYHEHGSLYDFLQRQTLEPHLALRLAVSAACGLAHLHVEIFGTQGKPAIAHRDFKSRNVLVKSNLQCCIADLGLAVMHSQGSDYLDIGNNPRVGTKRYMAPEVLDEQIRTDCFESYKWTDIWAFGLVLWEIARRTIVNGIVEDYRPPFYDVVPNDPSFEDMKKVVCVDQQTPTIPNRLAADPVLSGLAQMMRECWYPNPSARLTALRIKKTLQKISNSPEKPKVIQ
Sequence of human ALK1 protein (Sino Biological, #10066-H08H) (P37023 22-118 limits assumed): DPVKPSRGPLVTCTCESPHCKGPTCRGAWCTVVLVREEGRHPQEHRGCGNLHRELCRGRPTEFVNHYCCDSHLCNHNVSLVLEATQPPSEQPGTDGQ

B1: DGL641 (bispecific antibody)
chain 1: EVQLLESGGGLVQPGGSLRLSCAASGFTFSNAWMNWVRQAPGKGLEWVSSISSSSSYIYYADSVKGRFTISRDNSKNTLYLQMNSLRAEDTAVYYCARAVAAGGMFWGLDQWGQGTLVTVTSSGGGGSGGGGSGGGGSQSVLTQPPSASGTPGQRVTISCSGSRSNIGSNSVHWYQQLPGTAPKLLIYGNSNRPSGVPDRFSGSKSGTSASLAISGLRSEDEADYYCQSYDSSLNDHVVFGGGTKLTVLDKTHTCPPCPAPEAAGAPSVFLFPPKPKDTLMISRTPEVTCVVVDVSHEDPEVKFNWYVDGVEVHNAKTKPREEQYNSTYRVVSVLTVLHQDWLNGKEYKCKVSNKALPAPIEKTISKAKGQPREPQVCTLPPSRDELTKNQVSLSCAVKGFYPSDIAVEWESNGQPENNYKTTPPVLDSDGSFFLVSKLTVDKSRWQQGNVFSCSVMHEALHNHYTQKSLSLSPGWSHPQFEK
chain 2: not shown
With B1, in assay [1], the “% Emax BMP9” value turned out to be 76% and the “Emax (RLU)” value worked out at 1.41e+06 RLU. Also, in assay [2], the “Abs450 1 nM” value is 0.07, the “Abs450 10 nM” value worked out at 0.15 and the “Abs450 100 nM” value was found to be 0.83. In addition, in assay [3], the “Abs450 1 nM” value amounted to 0.33, the “Abs450 10 nM” value is 0.43 and the “Abs450 100 nM” value was 0.9.

B2: DGL648 (bispecific antibody)
chain 1: EVQLLESGGGLVQPGGSLRLSCAASGFTFSNAWMNWVRQAPGKGLEWVSSISSSSSYIYYADSVKGRFTISRDNSKNTLYLQMNSLRAEDTAVYYCARAVAAGGLFWGLDQWGQGTLVTVTSSGGGGSGGGGSGGGGSQSVLTQPPSASGTPGQRVTISCSGSRSNIGSNSVHWYQQLPGTAPKLLIYGNSNRPSGVPDRFSGSKSGTSASLAISGLRSEDEADYYCQSYDSSLNDHVVFGGGTKLTVLDKTHTCPPCPAPEAAGAPSVFLFPPKPKDTLMISRTPEVTCVVVDVSHEDPEVKFNWYVDGVEVHNAKTKPREEQYNSTYRVVSVLTVLHQDWLNGKEYKCKVSNKALPAPIEKTISKAKGQPREPQVCTLPPSRDELTKNQVSLSCAVKGFYPSDIAVEWESNGQPENNYKTTPPVLDSDGSFFLVSKLTVDKSRWQQGNVFSCSVMHEALHNHYTQKSLSLSPGWSHPQFEK
chain 2: not shown
For B2, in assay [1], the “% Emax BMP9” value came out at 78% and the “Emax (RLU)” value came out at 1.45e+06 RLU. Further, in assay [2], the “Abs450 1 nM” value was 0.08, the “Abs450 10 nM” value amounted to 0.17 and the “Abs450 100 nM” value stood at 0.8. Moreover, in assay [3], the “Abs450 1 nM” value was determined as 0.24, the “Abs450 10 nM” value was determined as 0.33 and the “Abs450 100 nM” value was 0.77.

B3: DGL645 (bispecific antibody)
chain 1: EVQLLESGGGLVQPGGSLRLSCAASGFTFSNAWMNWVRQAPGKGLEWVSSISSSSSYIYYADSVKGRFTISRDNSKNTLYLQMNSLRAEDTAVYYCARAVAGTSMWYGLDQWGQGTLVTVTSSGGGGSGGGGSGGGGSQSVLTQPPSASGTPGQRVTISCSGSRSNIGSNSVHWYQQLPGTAPKLLIYGNSNRPSGVPDRFSGSKSGTSASLAISGLRSEDEADYYCQSYDSSLNDHVVFGGGTKLTVLDKTHTCPPCPAPEAAGAPSVFLFPPKPKDTLMISRTPEVTCVVVDVSHEDPEVKFNWYVDGVEVHNAKTKPREEQYNSTYRVVSVLTVLHQDWLNGKEYKCKVSNKALPAPIEKTISKAKGQPREPQVCTLPPSRDELTKNQVSLSCAVKGFYPSDIAVEWESNGQPENNYKTTPPVLDSDGSFFLVSKLTVDKSRWQQGNVFSCSVMHEALHNHYTQKSLSLSPGWSHPQFEK
chain 2: not shown
As to B3, in assay [1], the “% Emax BMP9” value is 19% and the “Emax (RLU)” value stood at 353000 RLU. In assay [2], the “Abs450 1 nM” value was 0.07, the “Abs450 10 nM” value is 0.13 and the “Abs450 100 nM” value came out at 0.59. In addition, in assay [3], the “Abs450 1 nM” value was found to be 0.23, the “Abs450 10 nM” value is 0.21 and the “Abs450 100 nM” value was 0.16.

B4: DGL644 (bispecific antibody)
chain 1: EVQLLESGGGLVQPGGSLRLSCAASGFTFSNAWMNWVRQAPGKGLEWVSSISSSSSYIYYADSVKGRFTISRDNSKNTLYLQMNSLRAEDTAVYYCARSNGSGGSTSPLDLWGQGTLVTVTSSGGGGSGGGGSGGGGSQSVLTQPPSASGTPGQRVTISCSGSRSNIGSNSVHWYQQLPGTAPKLLIYGNSNRPSGVPDRFSGSKSGTSASLAISGLRSEDEADYYCQSYDSSLNDHVVFGGGTKLTVLDKTHTCPPCPAPEAAGAPSVFLFPPKPKDTLMISRTPEVTCVVVDVSHEDPEVKFNWYVDGVEVHNAKTKPREEQYNSTYRVVSVLTVLHQDWLNGKEYKCKVSNKALPAPIEKTISKAKGQPREPQVCTLPPSRDELTKNQVSLSCAVKGFYPSDIAVEWESNGQPENNYKTTPPVLDSDGSFFLVSKLTVDKSRWQQGNVFSCSVMHEALHNHYTQKSLSLSPGWSHPQFEK
chain 2: not shown
For B4, in assay [1], the “% Emax BMP9” value came to 8% and the “Emax (RLU)” value was 153000 RLU. Also, in assay [2], the “Abs450 1 nM” value was 0.06, the “Abs450 10 nM” value was 0.1 and the “Abs450 100 nM” value was 0.54. Also, in assay [3], the “Abs450 1 nM” value was determined as 0.23, the “Abs450 10 nM” value is 0.2 and the “Abs450 100 nM” value was found to be 0.17.

B5: DGL647 (bispecific antibody)
chain 1: EVQLLESGGGLVQPGGSLRLSCAASGFTFSNAWMNWVRQAPGKGLEWVSSISSSSSYIYYADSVKGRFTISRDNSKNTLYLQMNSLRAEDTAVYYCARAVAAGGFFWGLDQWGQGTLVTVTSSGGGGSGGGGSGGGGSQSVLTQPPSASGTPGQRVTISCSGSRSNIGSNSVHWYQQLPGTAPKLLIYGNSNRPSGVPDRFSGSKSGTSASLAISGLRSEDEADYYCQSYDSSLNDHVVFGGGTKLTVLDKTHTCPPCPAPEAAGAPSVFLFPPKPKDTLMISRTPEVTCVVVDVSHEDPEVKFNWYVDGVEVHNAKTKPREEQYNSTYRVVSVLTVLHQDWLNGKEYKCKVSNKALPAPIEKTISKAKGQPREPQVCTLPPSRDELTKNQVSLSCAVKGFYPSDIAVEWESNGQPENNYKTTPPVLDSDGSFFLVSKLTVDKSRWQQGNVFSCSVMHEALHNHYTQKSLSLSPGWSHPQFEK
chain 2: not shown
Consider B5, for which, in assay [1], the “% Emax BMP9” value amounted to 79% and the “Emax (RLU)” value was found to be 1.46e+06 RLU. Besides, in assay [2], the “Abs450 1 nM” value was 0.07, the “Abs450 10 nM” value worked out at 0.16 and the “Abs450 100 nM” value was 0.84. Also, in assay [3], the “Abs450 1 nM” value was 0.25, the “Abs450 10 nM” value worked out at 0.51 and the “Abs450 100 nM” value was 1.9.

B6: DGL649 (bispecific antibody)
chain 1: EVQLLESGGGLVQPGGSLRLSCAASGFTFSLAWMNWVRQAPGKGLEWVSSISSSTSYIYYADSVKGRFTISRDNSKNTLYLQMNSLRAEDTAVYYCARAVAAGGMFWGLDQWGQGTLVTVTSSGGGGSGGGGSGGGGSQSVLTQPPSASGTPGQRVTISCSGSRSNIGSNSVHWYQQLPGTAPKLLIYGNSNRPSGVPDRFSGSKSGTSASLAISGLRSEDEADYYCQSYDSSLNDHVVFGGGTKLTVLDKTHTCPPCPAPEAAGAPSVFLFPPKPKDTLMISRTPEVTCVVVDVSHEDPEVKFNWYVDGVEVHNAKTKPREEQYNSTYRVVSVLTVLHQDWLNGKEYKCKVSNKALPAPIEKTISKAKGQPREPQVCTLPPSRDELTKNQVSLSCAVKGFYPSDIAVEWESNGQPENNYKTTPPVLDSDGSFFLVSKLTVDKSRWQQGNVFSCSVMHEALHNHYTQKSLSLSPGWSHPQFEK
chain 2: not shown
For B6, in assay [1], the “% Emax BMP9” value worked out at 35% and the “Emax (RLU)” value came to 648000 RLU. Also, in assay [2], the “Abs450 1 nM” value came out at 0.07, the “Abs450 10 nM” value turned out to be 0.18 and the “Abs450 100 nM” value stood at 0.81. Further, in assay [3], the “Abs450 1 nM” value is 0.3, the “Abs450 10 nM” value came out at 0.32 and the “Abs450 100 nM” value is 0.76.

B7: DGL635 (bispecific antibody)
chain 1: EVQLLESGGGLVQPGGSLRLSCAASGFTFSDYYMTWIRQAPGKGLEWVSSISGGSTYYADSRKGRFTISRDNSENTLYLQMNSLRAEDTAVYYCARDFGVAGWFGQYGMDVWGQGTLVTVSSGGGGSGGGGSGGGGSQSVLTQPPSASGTPGQRVTISCTGSSSNIGAGYDVHWYQQLPGTAPKLLIYRSNQRPSGVPDRFSGSKSGTSASLAISGLRSEDEADYYCSSYAGNYNLVFGGGTKLTVLDKTHTCPPCPAPEAAGAPSVFLFPPKPKDTLMISRTPEVTCVVVDVSHEDPEVKFNWYVDGVEVHNAKTKPREEQYNSTYRVVSVLTVLHQDWLNGKEYKCKVSNKALPAPIEKTISKAKGQPREPQVCTLPPSRDELTKNQVSLSCAVKGFYPSDIAVEWESNGQPENNYKTTPPVLDSDGSFFLVSKLTVDKSRWQQGNVFSCSVMHEALHNHYTQKSLSLSPGWSHPQFEK
chain 2: not shown
For the molecule B7, in assay [1], the “% Emax BMP9” value is 141% and the “Emax (RLU)” value is 2.61e+06 RLU. For the same molecule, in assay [2], the “Abs450 1 nM” value is 0.09, the “Abs450 10 nM” value was determined as 0.29 and the “Abs450 100 nM” value came out at 1.17. Also, in assay [3], the “Abs450 1 nM” value was determined as 0.15, the “Abs450 10 nM” value amounted to 0.33 and the “Abs450 100 nM” value came out at 1.17.
